In PMC2744858:

Experiments:
[1] = target: 14-3-3ζ (UniProt P63104); test: PACS-2 co-immunoprecipitation, 14-3-3ζ-myc western blot; conditions: reference: wild-type HA-PACS-2; sites S437
[2] = target: 14-3-3σ (UniProt P31947); test: GST pull-down, 14-3-3σ-His6 western blot; conditions: reference: wild-type GST-PACS-2MR; sites S437

binding against the reference [1]	binding against the reference [2]	Substance
lost		PACS-2 (from UniProt Q86VP3) PACS-2 S437A
	lost	PACS-2 middle region (MR) (from UniProt Q86VP3) S437A
